Test results reported in article PMC5508132.
Non-standard residues stand in square brackets, D forms with d. Groups on a side chain read outwards from the residue. No end group written: not given here. Phe(4-N3) = [N-]=[N+]=Nc1ccc(C[C@H](N)C(=O)O)cc1; ssDNA = not defined here

Biological target: integrin (of mouse fibroblasts, members not named for this experiment)
Conditions: scale: fold relative to the unmodified substrate

area of fibroblasts on RGDS surfaces after 24 h, relative to the unmodified substrate: 6
Binder: [Phe(4-N3)]([DIBAC-ssDNA])GGRGDS-NH2 (reading uncertain; also: printed as F^az^GGRGDS) [RGDS P-DNA (F^azGGRGDS peptide conjugated to ssDNA)]
